The MegaScale stability set (Tsuboyama et al. 2023)

B1: r11_951_TrROS_Hall (parent)
chain: KKKYVIKVYFEDTGKEVEIEAESKEEALEAAKRLAEELGLKIKKVEIYP

Variants of: B1
Assay: folding stability dG (cDNA display proteolysis); higher = more stable
Details: PBS, room temperature

Row | Variant | folding stability dG [kcal/mol]
1 | KKKYVIKVYFEDTGKEVEIEAESKEEALEAAKRLAEELGLKEKKVEIYP [I42E] | 2.5
2 | KKKYVIKVYFEDTGKEVEIEAESKEEALEAAKRLAEELGLKRKKVEIYP [I42R] | 2.53
3 | KKKYVIKVYFEDTGKEVEIEAESKEEALEAAKRLAEELGLKVKKVEIYP [I42V] | 4.17
4 | KKKYVIKVYFEDTGKEVEIEAESKEEALEAAKRLAEELGLKHKKVEIYP [I42H] | 2.67
5 | KKKYVIKVYFEDTGKEVEIEAESKEEALEAAKRLAEELGLKWKKVEIYP [I42W] | 4.05
6 | KKKYVIKVYFEDTGKEVEIEAESKEEALEAAKRLAEELGLKKKKVEIYP [I42K] | 2.18
7 | KKKYVIKVYFEDTGKEVEIEAESKEEALEAAKRLAEELGLKSKKVEIYP [I42S] | 2.64
8 | KKKYVIKVYFEDTGKEVEIEAESKEEALEAAKRLAEELGLKDKKVEIYP [I42D] | 2.38
9 | KKKYVIKVYFEDTGKEVEIEAESKEEALEAAKRLAEELGLKFKKVEIYP [I42F] | 4.01
10 | KKKYVIKVYFEDTGKEVEIEAESKEEALEAAKRLAEELGLKGKKVEIYP [I42G] | 2.51
11 | KKKYVIKVYFEDTGKEVEIEAESKEEALEAAKRLAEELGLKYKKVEIYP [I42Y] | 3.75
12 | KKKYVIKVYFEDTGKEVEIEAESKEEALEAAKRLAEELGLKPKKVEIYP [I42P] | 3.23
13 | KKKYVIKVYFEDTGKEVEIEAESKEEALEAAKRLAEELGLKLKKVEIYP [I42L] | 4.32
14 | KKKYVIKVYFEDTGKEVEIEAESKEEALEAAKRLAEELGLKMKKVEIYP [I42M] | 3.99
15 | KKKYVIKVYFEDTGKEVEIEAESKEEALEAAKRLAEELGLKNKKVEIYP [I42N] | 2.55
16 | KKKYVIKVYFEDTGKEVEIEAESKEEALEAAKRLAEELGLKQKKVEIYP [I42Q] | 2.53
17 | KKKYVIKVYFEDTGKEVEIEAESKEEALEAAKRLAEELGLKAKKVEIYP [I42A] | 3.21
18 | KKKYVIKVYFEDTGKEVEIEAESKEEALEAAKRLAEELGLKTKKVEIYP [I42T] | 2.88
19 | KKKYVIKVYFEDTGKEVEIEAESKEEALEAAKRLAEELGLKCKKVEIYP [I42C] | 3.57
20 | KKKYVIKVYFEDTGKEVEIEAESKEEALEAAKRLAEELGLKICKVEIYP [K43C] | 4.13
21 | KKKYVIKVYFEDTGKEVEIEAESKEEALEAAKRLAEELGLKIDKVEIYP [K43D] | 4.29
22 | KKKYVIKVYFEDTGKEVEIEAESKEEALEAAKRLAEELGLKIAKVEIYP [K43A] | 4.4
23 | KKKYVIKVYFEDTGKEVEIEAESKEEALEAAKRLAEELGLNIKKVEIYP [K41N] | 4.28
24 | KKKYVIKVYFEDTGKEVEIEAESKEEALEAAKRLAEELGLTIKKVEIYP [K41T] | 4.32
25 | KKKYVIKVYFEDTGKEVEIEAESKEEALEAAKRLAEELGLWIKKVEIYP [K41W] | 4.11
26 | KKKYVIKVYFEDTGKEVEIEAESKEEALEAAKRLAEELGLYIKKVEIYP [K41Y] | 4.5
27 | KKKYVIKVYFEDTGKEVEIEAESKEEALEAAKRLAEELGLCIKKVEIYP [K41C] | 4.33

Row | Variant | folding stability dG [kcal/mol]
28 | KKKYVIKVYFEDTGKEVEIEAESKEEALEAAKRLAEELGLVIKKVEIYP [K41V] | 4.34
29 | KKKYVIKVYFEDTGKEVEIEAESKEEALEAAKRLAEELGLDIKKVEIYP [K41D] | 4
30 | KKKYVIKVYFEDTGKEVEIEAESKEEALEAAKRLAEELGLAIKKVEIYP [K41A] | 4.33
31 | KKKYVIKVYFEDTGKEVEIEAESKEEALEAAKRLAEELGLPIKKVEIYP [K41P] | 4.25
32 | KKKYVIKVYFEDTGKEVEIEAESKEEALEAAKRLAEELGLGIKKVEIYP [K41G] | 4.07
33 | KKKYVIKVYFEDTGKEVEIEAESKEEALEAAKRLAEELGLQIKKVEIYP [K41Q] | 4.02
34 | KKKYVIKVYFEDTGKEVEIEAESKEEALEAAKRLAEELGLMIKKVEIYP [K41M] | 4.38
35 | KKKYVIKVYFEDTGKEVEIEAESKEEALEAAKRLAEELGLEIKKVEIYP [K41E] | 4.16
36 | KKKYVIKVYFEDTGKEVEIEAESKEEALEAAKRLAEELGLRIKKVEIYP [K41R] | 4.62
37 | KKKYVIKVYFEDTGKEVEIEAESKEEALEAAKRLAEELGLLIKKVEIYP [K41L] | 4.36
38 | KKKYVIKVYFEDTGKEVEIEAESKEEALEAAKRLAEELGLIIKKVEIYP [K41I] | 4.19
39 | KKKYVIKVYFEDTGKEVEIEAESKEEALEAAKRLAEELGLHIKKVEIYP [K41H] | 4.22
40 | KKKYVIKVYFEDTGKEVEIEAESKEEALEAAKRLAEELGLFIKKVEIYP [K41F] | 4.44
41 | KKKYVIKVYFEDTGKEVEIEAESKEEALEAAKRLAEELGLSIKKVEIYP [K41S] | 4.41
42 | KKKYVIKVYFEDTGKEVEIEAESKEEALEAAKRLAEELGYKIKKVEIYP [L40Y] | 4.88
43 | KKKYVIKVYFEDTGKEVEIEAESKEEALEAAKRLAEELGKKIKKVEIYP [L40K] | 3.93
44 | KKKYVIKVYFEDTGKEVEIEAESKEEALEAAKRLAEELGTKIKKVEIYP [L40T] | 3.92
45 | KKKYVIKVYFEDTGKEVEIEAESKEEALEAAKRLAEELGSKIKKVEIYP [L40S] | 3.9
46 | KKKYVIKVYFEDTGKEVEIEAESKEEALEAAKRLAEELGNKIKKVEIYP [L40N] | 3.66
47 | KKKYVIKVYFEDTGKEVEIEAESKEEALEAAKRLAEELGPKIKKVEIYP [L40P] | 3.02
48 | KKKYVIKVYFEDTGKEVEIEAESKEEALEAAKRLAEELGWKIKKVEIYP [L40W] | 4.72
49 | KKKYVIKVYFEDTGKEVEIEAESKEEALEAAKRLAEELGVKIKKVEIYP [L40V] | 4.1
50 | KKKYVIKVYFEDTGKEVEIEAESKEEALEAAKRLAEELGIKIKKVEIYP [L40I] | 3.96
51 | KKKYVIKVYFEDTGKEVEIEAESKEEALEAAKRLAEELGMKIKKVEIYP [L40M] | 4.31
52 | KKKYVIKVYFEDTGKEVEIEAESKEEALEAAKRLAEELGRKIKKVEIYP [L40R] | 4.27
53 | KKKYVIKVYFEDTGKEVEIEAESKEEALEAAKRLAEELGQKIKKVEIYP [L40Q] | 4.07
